The numbers were not newly measured in paper PMC12524998, which cites them from elsewhere.

The target in this data set is dysferlin (Homo sapiens) (UniProt O75923). Put plainly: SPR. On the technique in general: In SPR one partner is held on a chip, and binding of the other changes the refractive index at the surface.
Chain of UniProt O75923 (O75923 whole entry): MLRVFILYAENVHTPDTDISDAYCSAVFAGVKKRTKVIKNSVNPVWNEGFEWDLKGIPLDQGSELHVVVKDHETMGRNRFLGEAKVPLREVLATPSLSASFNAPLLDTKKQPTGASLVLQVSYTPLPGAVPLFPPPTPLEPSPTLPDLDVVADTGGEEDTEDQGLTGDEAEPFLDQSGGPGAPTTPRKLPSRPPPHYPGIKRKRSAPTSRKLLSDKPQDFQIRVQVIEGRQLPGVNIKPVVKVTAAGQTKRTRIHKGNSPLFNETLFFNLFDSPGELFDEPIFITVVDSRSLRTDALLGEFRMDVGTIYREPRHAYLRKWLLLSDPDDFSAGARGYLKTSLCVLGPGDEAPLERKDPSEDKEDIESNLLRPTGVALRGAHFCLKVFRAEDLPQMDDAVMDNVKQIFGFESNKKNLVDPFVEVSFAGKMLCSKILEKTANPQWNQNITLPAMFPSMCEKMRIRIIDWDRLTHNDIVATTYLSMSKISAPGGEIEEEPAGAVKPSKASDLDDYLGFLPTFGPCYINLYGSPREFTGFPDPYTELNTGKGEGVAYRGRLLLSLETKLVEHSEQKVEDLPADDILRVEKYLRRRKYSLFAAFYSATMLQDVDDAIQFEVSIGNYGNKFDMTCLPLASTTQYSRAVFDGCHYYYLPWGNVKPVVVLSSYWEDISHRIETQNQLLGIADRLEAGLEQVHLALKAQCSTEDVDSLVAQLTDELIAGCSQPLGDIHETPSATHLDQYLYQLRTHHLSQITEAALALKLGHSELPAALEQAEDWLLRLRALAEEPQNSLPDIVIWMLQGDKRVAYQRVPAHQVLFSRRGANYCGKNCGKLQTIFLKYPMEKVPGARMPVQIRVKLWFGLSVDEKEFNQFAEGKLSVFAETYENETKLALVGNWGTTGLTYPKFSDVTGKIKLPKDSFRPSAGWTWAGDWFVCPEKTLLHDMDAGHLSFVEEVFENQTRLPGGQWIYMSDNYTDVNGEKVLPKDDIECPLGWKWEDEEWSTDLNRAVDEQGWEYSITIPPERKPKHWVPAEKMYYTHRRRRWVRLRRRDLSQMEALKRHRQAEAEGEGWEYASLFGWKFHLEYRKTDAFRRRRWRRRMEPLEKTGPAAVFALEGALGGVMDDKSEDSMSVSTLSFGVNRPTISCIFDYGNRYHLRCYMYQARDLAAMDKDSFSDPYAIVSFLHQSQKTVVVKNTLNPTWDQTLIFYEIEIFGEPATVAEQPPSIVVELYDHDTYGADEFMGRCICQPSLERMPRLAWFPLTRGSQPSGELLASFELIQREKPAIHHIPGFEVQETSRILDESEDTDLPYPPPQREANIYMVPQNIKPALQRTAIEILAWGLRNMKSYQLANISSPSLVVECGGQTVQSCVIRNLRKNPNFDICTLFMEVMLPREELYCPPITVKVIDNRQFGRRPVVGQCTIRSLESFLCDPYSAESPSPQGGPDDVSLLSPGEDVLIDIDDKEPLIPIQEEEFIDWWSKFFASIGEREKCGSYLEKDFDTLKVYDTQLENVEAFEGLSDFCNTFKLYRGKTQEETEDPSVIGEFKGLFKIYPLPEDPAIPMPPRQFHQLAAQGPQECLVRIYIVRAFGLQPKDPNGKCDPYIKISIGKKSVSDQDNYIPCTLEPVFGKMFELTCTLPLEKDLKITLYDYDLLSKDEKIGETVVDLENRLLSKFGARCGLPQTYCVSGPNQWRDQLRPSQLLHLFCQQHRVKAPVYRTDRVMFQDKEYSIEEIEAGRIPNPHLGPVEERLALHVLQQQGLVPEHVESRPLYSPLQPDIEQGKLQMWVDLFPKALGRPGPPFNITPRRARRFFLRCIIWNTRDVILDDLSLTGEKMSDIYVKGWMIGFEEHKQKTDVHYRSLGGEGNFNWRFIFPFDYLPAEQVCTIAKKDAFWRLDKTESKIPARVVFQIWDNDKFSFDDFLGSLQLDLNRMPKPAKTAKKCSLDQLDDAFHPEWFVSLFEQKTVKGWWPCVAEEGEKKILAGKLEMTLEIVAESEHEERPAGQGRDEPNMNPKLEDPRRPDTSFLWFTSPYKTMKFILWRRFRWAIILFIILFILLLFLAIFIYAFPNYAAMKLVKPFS

In the case of FKBP8 (from UniProt Q14318), the Kd (commonly the constant that tells how readily two partners part at equilibrium) is 24 nM.
